Test results published in patent US20220332804A1 (CSL INNOVATION, published 2022).
Residue numbers refer to the chain shown, from its start.

How the values were obtained:
Assay in all cases: SPR, KD relative to WT C2;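 also: biacore SPR at 37 °C, anti-C2 mAbs captured via immobilised goat anti-human IgG, C2 alanine or serine surface mutants as analytes, 1:1 model fitted, double-referenced sensograms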
human C2 K487A = target: T1, human C2 K487A (human, UniProt P06681 21-752)
T1 sequence: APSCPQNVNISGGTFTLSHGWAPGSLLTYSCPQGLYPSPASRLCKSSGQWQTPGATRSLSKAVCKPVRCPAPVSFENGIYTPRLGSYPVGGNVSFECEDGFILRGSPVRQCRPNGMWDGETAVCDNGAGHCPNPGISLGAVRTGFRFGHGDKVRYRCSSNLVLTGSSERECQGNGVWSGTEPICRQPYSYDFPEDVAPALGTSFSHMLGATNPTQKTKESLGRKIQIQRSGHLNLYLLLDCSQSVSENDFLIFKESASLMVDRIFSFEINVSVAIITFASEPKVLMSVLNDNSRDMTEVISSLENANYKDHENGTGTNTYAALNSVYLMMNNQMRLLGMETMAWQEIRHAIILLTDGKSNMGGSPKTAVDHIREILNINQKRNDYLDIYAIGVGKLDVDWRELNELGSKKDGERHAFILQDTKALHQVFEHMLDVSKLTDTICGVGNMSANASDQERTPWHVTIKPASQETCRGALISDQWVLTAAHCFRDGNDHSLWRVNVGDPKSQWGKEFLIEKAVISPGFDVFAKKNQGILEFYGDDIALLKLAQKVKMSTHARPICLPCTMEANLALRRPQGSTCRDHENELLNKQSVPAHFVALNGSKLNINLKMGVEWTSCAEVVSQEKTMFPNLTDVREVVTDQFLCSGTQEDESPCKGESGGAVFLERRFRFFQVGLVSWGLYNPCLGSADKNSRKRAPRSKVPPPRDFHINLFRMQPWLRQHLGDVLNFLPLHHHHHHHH

human C2 A470S = target: T2, human C2 A470S (human, UniProt P06681 21-752)
T2 sequence: T1 sequence with A450S, A467K

human C2 E476A = target: T3, human C2 E476A (human, UniProt P06681 21-752)
T3 sequence: T1 sequence with E456A, A467K

human C2 M648A = target: T4, human C2 M648A (human, UniProt P06681 21-752)
T4 sequence: T1 sequence with A467K, M628A

B1: RF16-226 (antibody, human IgG4 S228P, lambda)
heavy: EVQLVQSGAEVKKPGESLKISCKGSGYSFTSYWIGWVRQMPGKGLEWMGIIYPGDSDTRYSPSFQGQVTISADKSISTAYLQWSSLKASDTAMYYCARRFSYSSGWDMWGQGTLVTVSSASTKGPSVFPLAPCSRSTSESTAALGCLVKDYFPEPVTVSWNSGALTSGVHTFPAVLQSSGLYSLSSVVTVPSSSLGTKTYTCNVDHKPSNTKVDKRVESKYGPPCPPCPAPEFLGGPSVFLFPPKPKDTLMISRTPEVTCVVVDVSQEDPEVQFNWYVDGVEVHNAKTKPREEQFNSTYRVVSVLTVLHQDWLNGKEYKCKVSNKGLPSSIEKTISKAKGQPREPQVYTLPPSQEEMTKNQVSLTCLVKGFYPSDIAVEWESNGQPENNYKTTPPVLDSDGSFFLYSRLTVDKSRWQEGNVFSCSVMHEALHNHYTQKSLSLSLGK
light: SYELTQPPSVSVSPGQTARITCSGDALTSKYVAWYQQKSGLAPLLVIYEDTRRPSGIPAKFSGSSSGSVATLTISGAHGDDEADYYCYSTDASGHQRVFGGGTKLTVLSQPKAAPSVTLFPPSSEELQANKATLVCLISDFYPGAVTVAWKADGSPVKAGVETTKPSKQSNNKYAASSYLSLTPEQWKSHRSYSCQVTHEGSTVEKTVAPTECS
notes: pH-dependent anti-C2 antibody from a phage display library; also called WT
B1 was tested, and the Fold diff (human C2 K487A) was 9 fold, the Fold diff (human C2 A470S) was 1 fold and the Fold diff (human C2 E476A) was 2 fold. For the same binder, the Fold diff (human C2 M648A) was 20 fold.
